Results reported in patent publication US7498317B2, “Antibacterial agents and process for producing the same” (Kabushiki Kaisha Yakult Honsha, priority 1998, dated 2009).

Tested on: Helicobactor pylori
Assay: Growth of Helicobactor pylori in 96-well microplate (turbidity at 600 nm)
Type: cell-based
Details: 37° C. for 3 days; for suppression of the growth of Helicobactor pylori: 2 μL of 1 mg/mL added to 200 μL culture; for absorbance (turbidity at 600 nm): 2 μL of 1 mg/mL added to 200 μL of 1.5×10^8 CFU/mL in Brucella medium with 5% FCS, slightly aerobic, control group 0.835

Row | Structure (SMILES) | suppression of the growth of Helicobactor pylori | absorbance (turbidity at 600 nm)
1 | CC1(C)S[C@@H]2[C@H](NC(=O)C(NCC(O)C3OCC(O)C3OC3OC(CO)C(OS(=O)(=O)O)C(O)C3O)c3ccccc3)C(=O)N2C1C(=O)O (stereo partly shown) [CarrabioAM] | totally suppressed the growth | 0.003
2 | CON=C(C(=O)N[C@@H]1C(=O)N2C(C(=O)O)=C(COC(C)=O)CS[C@H]12)c1csc(NCC(O)C2OCC(O)C2OC2OC(CO)C(OS(=O)(=O)O)C(O)C2O)n1 (stereo partly shown) [CarrabioCTX] | totally suppressed the growth | 0.000
